The values below come from the supplement of paper PMC11875167.

This series can be described thus: observed amide hydrogen exchange rate constant kobs (stretched exponential fit, FD-normalized) (s^-1); higher = faster H/D exchange (less protection). As to conditions: pH 3 (pH read); temperature: 20 °C; D2O: 88%. An outline of the steps:
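Exchange was started by placing Jurkat tryptic peptides in 88% D2O at pHread 3 and 20 °C, and was stopped with 0.23% formic acid at 13 times from 18 to 93,600 s. HDExaminer processed MS1 uptake from a Q-Exactive HF with no back-exchange correction, normalizing it to full-deuteration controls prepared for 24 h at 37 °C. The fit used a stretched single exponential with β = 0.8. The observed exchange rate constant kobs is defined as the rate from this fit.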
Consider ILGLLDAYLK, for which the “observed amide hydrogen exchange rate constant kobs” value was determined as 0.00089.

As to GALQNIIPASTGAAK, the “observed amide hydrogen exchange rate constant kobs” value was 0.000988.

Turning to EGMNIVEAMER, the “observed amide hydrogen exchange rate constant kobs” value turned out to be 0.00123.

Regarding LWDLTTGTTTR, the “observed amide hydrogen exchange rate constant kobs” value came to 0.00172.

As for FAAYFQQGDMESNGK, the “observed amide hydrogen exchange rate constant kobs” value came to 0.00182.

With SLADELALVDVLEDK, the “observed amide hydrogen exchange rate constant kobs” value was 0.00105.

As to QTVAVGVIK, the “observed amide hydrogen exchange rate constant kobs” value amounted to 0.000426.

On to IRYESLTDPSK, for which the “observed amide hydrogen exchange rate constant kobs” value stood at 0.00212.

As for HYGGLTGLNK, the “observed amide hydrogen exchange rate constant kobs” value was found to be 0.00221.

In the case of LVKQELK, the “observed amide hydrogen exchange rate constant kobs” value is 0.000709.

Regarding SQLDIIIHSLK, the “observed amide hydrogen exchange rate constant kobs” value came to 0.000886.

Turning to EQVANSAFVER, the “observed amide hydrogen exchange rate constant kobs” value was 0.00104.

As for AVCMLSNTTAIAEAWAR, the “observed amide hydrogen exchange rate constant kobs” value turned out to be 0.000746.

Take VFIGNLNTLVVK: the “observed amide hydrogen exchange rate constant kobs” value was found to be 0.000428.

Take EMLQQSK: the “observed amide hydrogen exchange rate constant kobs” value is 0.00166.

As to GNSIIMLEALERV, the “observed amide hydrogen exchange rate constant kobs” value was 0.00109.

Consider TAMSTPHVAEPAENEQDEQDENGAEASADLR, for which the “observed amide hydrogen exchange rate constant kobs” value amounted to 0.00244.

Take EANNFLWPFK: the “observed amide hydrogen exchange rate constant kobs” value is 0.000958.

For the substance LAAIAESGVER, the “observed amide hydrogen exchange rate constant kobs” value was 0.000919.

In the case of AVFPSIVGRPR, the “observed amide hydrogen exchange rate constant kobs” value was 0.000833.

For the substance EAILDIITSR, the “observed amide hydrogen exchange rate constant kobs” value was 0.0013.

For the substance DVNVNFEK, the “observed amide hydrogen exchange rate constant kobs” value was determined as 0.00146.

Take EVFSMAGVVVR: the “observed amide hydrogen exchange rate constant kobs” value was 0.00144.

Turning to LLQDFFNGK, the “observed amide hydrogen exchange rate constant kobs” value was 0.00068.

Regarding IHPVSTMVK, the “observed amide hydrogen exchange rate constant kobs” value came out at 0.000804.

IINEPTAAAIAYGLDK: the “observed amide hydrogen exchange rate constant kobs” value worked out at 0.000776.

Consider FSGWYDADLSPAGHEEAK, for which the “observed amide hydrogen exchange rate constant kobs” value was determined as 0.00239.

Take MVNHFIAEFK: the “observed amide hydrogen exchange rate constant kobs” value amounted to 0.00114.

VAGQDGSVVQFK: the “observed amide hydrogen exchange rate constant kobs” value was determined as 0.00116.

With VLQALEGLK, the “observed amide hydrogen exchange rate constant kobs” value was determined as 0.00101.

In the case of VPPPPPIAR, the “observed amide hydrogen exchange rate constant kobs” value is 0.000659.

Turning to NLPFDFTWK, the “observed amide hydrogen exchange rate constant kobs” value was 0.00101.

As for RGLEVNK, the “observed amide hydrogen exchange rate constant kobs” value came to 0.00164.

As for ALLFIPR, the “observed amide hydrogen exchange rate constant kobs” value turned out to be 0.000533.

Regarding PFLNGLTGKPVMVK, the “observed amide hydrogen exchange rate constant kobs” value worked out at 0.000606.

As for LFIGGLSFETTDDSLREHFEK, the “observed amide hydrogen exchange rate constant kobs” value was 0.00239.

In the case of ESVPEFPLSPPK, the “observed amide hydrogen exchange rate constant kobs” value was found to be 0.00083.

Turning to AEDNADTLALVFEAPNQEK, the “observed amide hydrogen exchange rate constant kobs” value came to 0.00102.

In the case of SFFTDDDK, the “observed amide hydrogen exchange rate constant kobs” value is 0.0032.

On to GHYTEGAELVDSVLDVVRK, for which the “observed amide hydrogen exchange rate constant kobs” value turned out to be 0.00131.

In the case of IDTIEIITDR, the “observed amide hydrogen exchange rate constant kobs” value was 0.000965.

ILTFDQLALDSPK: the “observed amide hydrogen exchange rate constant kobs” value is 0.000724.

Regarding MINTDLSR, the “observed amide hydrogen exchange rate constant kobs” value came out at 0.000886.

For the substance SNNVEMDWVLK, the “observed amide hydrogen exchange rate constant kobs” value came out at 0.000871.

Consider VTLTSEEEAR, for which the “observed amide hydrogen exchange rate constant kobs” value turned out to be 0.00196.

Turning to PAAPPAPGPGQLTLR, the “observed amide hydrogen exchange rate constant kobs” value was determined as 0.000936.

Take GYISPYFINTSK: the “observed amide hydrogen exchange rate constant kobs” value stood at 0.000598.

Take LEEDINSSMTNSTAASRPPVTLR: the “observed amide hydrogen exchange rate constant kobs” value amounted to 0.00139.

DQLIYNLLK: the “observed amide hydrogen exchange rate constant kobs” value came out at 0.000541.

On to IACLDFSLQK, for which the “observed amide hydrogen exchange rate constant kobs” value came out at 0.000643.

On to FYEAFSK, for which the “observed amide hydrogen exchange rate constant kobs” value was 0.00122.

For VLQATVVAVGSGSK, the “observed amide hydrogen exchange rate constant kobs” value worked out at 0.000618.

Turning to GYFEYIEENK, the “observed amide hydrogen exchange rate constant kobs” value came out at 0.00229.

VFLAQK: the “observed amide hydrogen exchange rate constant kobs” value came out at 0.00073.

Turning to WTGMIIGPPR, the “observed amide hydrogen exchange rate constant kobs” value was found to be 0.000901.

As for EIAEAYLGK, the “observed amide hydrogen exchange rate constant kobs” value came to 0.00148.

As for RAAEDDEDDDVDTKK, the “observed amide hydrogen exchange rate constant kobs” value stood at 0.0039.

Turning to IDFYFDENPYFENK, the “observed amide hydrogen exchange rate constant kobs” value was found to be 0.00186.

For GDGPVQGIINFEQK, the “observed amide hydrogen exchange rate constant kobs” value is 0.000693.

Take HELLQPFNVLYEK: the “observed amide hydrogen exchange rate constant kobs” value was 0.00104.

Consider GNPTVEVDLFTSK, for which the “observed amide hydrogen exchange rate constant kobs” value was 0.000833.

DDGLFSGDPNWFPK: the “observed amide hydrogen exchange rate constant kobs” value stood at 0.00189.

Turning to DAGTIAGLNVLR, the “observed amide hydrogen exchange rate constant kobs” value is 0.000899.

In the case of ETIEQEK, the “observed amide hydrogen exchange rate constant kobs” value was found to be 0.00152.

For LMGLEALK, the “observed amide hydrogen exchange rate constant kobs” value was 0.000548.

Turning to CPNLTHLNLSGNK, the “observed amide hydrogen exchange rate constant kobs” value is 0.00139.

In the case of AILVDLEPGTMDSVR, the “observed amide hydrogen exchange rate constant kobs” value is 0.0012.

Regarding ESYSVYVYK, the “observed amide hydrogen exchange rate constant kobs” value is 0.000648.

Regarding LDNLVAILDINR, the “observed amide hydrogen exchange rate constant kobs” value worked out at 0.00063.

As for GPDGLTAFEATDNQAIK, the “observed amide hydrogen exchange rate constant kobs” value amounted to 0.00114.

On to LIAPVAEEEATVPNNK, for which the “observed amide hydrogen exchange rate constant kobs” value came to 0.00102.

As for RALEQQVEEMK, the “observed amide hydrogen exchange rate constant kobs” value came out at 0.000806.

As to HEHQVMLMR, the “observed amide hydrogen exchange rate constant kobs” value turned out to be 0.00145.

Regarding ELLPEIR, the “observed amide hydrogen exchange rate constant kobs” value stood at 0.0016.

In the case of ELQEMDKDDESLIK, the “observed amide hydrogen exchange rate constant kobs” value came to 0.00203.

For DAGPLLISLK, the “observed amide hydrogen exchange rate constant kobs” value turned out to be 0.000622.

Consider IEVIEIMTDR, for which the “observed amide hydrogen exchange rate constant kobs” value came to 0.00104.

With STTTGHLIYK, the “observed amide hydrogen exchange rate constant kobs” value is 0.00173.

In the case of QLFHPEQLITGK, the “observed amide hydrogen exchange rate constant kobs” value worked out at 0.00131.

With PFLWLAR, the “observed amide hydrogen exchange rate constant kobs” value came to 0.000665.

Take EVTPEGLQMVK: the “observed amide hydrogen exchange rate constant kobs” value worked out at 0.000799.

For the substance VSFELFADK, the “observed amide hydrogen exchange rate constant kobs” value was 0.00165.

Turning to LFVGGLK, the “observed amide hydrogen exchange rate constant kobs” value was 0.000811.

Consider HLEINPDHSIIETLR, for which the “observed amide hydrogen exchange rate constant kobs” value was 0.00155.

For AAVPSGASTGIYEALELRDNDK, the “observed amide hydrogen exchange rate constant kobs” value stood at 0.00126.

For AMADPEVQQIMSDPAMR, the “observed amide hydrogen exchange rate constant kobs” value is 0.00104.

Consider DLSTIEPLK, for which the “observed amide hydrogen exchange rate constant kobs” value is 0.000669.

For ALGQNPTNAEVLK, the “observed amide hydrogen exchange rate constant kobs” value came to 0.000979.

With VESQLIGK, the “observed amide hydrogen exchange rate constant kobs” value amounted to 0.00139.

With ALAENSGVK, the “observed amide hydrogen exchange rate constant kobs” value worked out at 0.00135.

In the case of ALPFWNEEIVPQIK, the “observed amide hydrogen exchange rate constant kobs” value was 0.000814.

For AAIDWFDGK, the “observed amide hydrogen exchange rate constant kobs” value is 0.00155.

ADLINNLGTIAK: the “observed amide hydrogen exchange rate constant kobs” value was 0.000815.

Turning to SVETIK, the “observed amide hydrogen exchange rate constant kobs” value was determined as 0.000994.

IDNSQVESGSLEDDWDFLPPKK: the “observed amide hydrogen exchange rate constant kobs” value came out at 0.00156.

Turning to NPLPSK, the “observed amide hydrogen exchange rate constant kobs” value turned out to be 0.000929.

As to IIAPPERK, the “observed amide hydrogen exchange rate constant kobs” value stood at 0.00142.

With FAAATGATPIAGR, the “observed amide hydrogen exchange rate constant kobs” value was determined as 0.00118.

Take GLAPDLPEDLYHLIK: the “observed amide hydrogen exchange rate constant kobs” value is 0.00112.

Regarding IYVDDGLISLQVK, the “observed amide hydrogen exchange rate constant kobs” value is 0.000841.

Take GIAYIEFK: the “observed amide hydrogen exchange rate constant kobs” value is 0.00091.

For ALAAFLK, the “observed amide hydrogen exchange rate constant kobs” value amounted to 0.000792.

For IHFPLATYAPVISAEK, the “observed amide hydrogen exchange rate constant kobs” value is 0.000691.

Regarding SLAGSSGPGASSGTSGDHGELVVR, the “observed amide hydrogen exchange rate constant kobs” value came out at 0.00237.

In the case of TSRPENAIIYNNNEDFQVGQAK, the “observed amide hydrogen exchange rate constant kobs” value came out at 0.00112.

QVVESAYEVIK: the “observed amide hydrogen exchange rate constant kobs” value was 0.000781.

On to NMGGPYGGGNYGPGGSGGSGGYGGR, for which the “observed amide hydrogen exchange rate constant kobs” value is 0.00223.

In the case of YPALHKPENQDIDWGALEGETR, the “observed amide hydrogen exchange rate constant kobs” value was 0.0022.

In the case of LFFLQVK, the “observed amide hydrogen exchange rate constant kobs” value stood at 0.00042.

With SIEVIENR, the “observed amide hydrogen exchange rate constant kobs” value stood at 0.000822.

On to DQQEAALVDMVNDGVEDLR, for which the “observed amide hydrogen exchange rate constant kobs” value was found to be 0.00161.

As for ILDSVGIEADDDRLNK, the “observed amide hydrogen exchange rate constant kobs” value turned out to be 0.0024.

As for AVTEQGHELSNEER, the “observed amide hydrogen exchange rate constant kobs” value stood at 0.00324.

Turning to TFNTSTGGLLLPSDTK, the “observed amide hydrogen exchange rate constant kobs” value turned out to be 0.00131.

Take VLTVINQTQK: the “observed amide hydrogen exchange rate constant kobs” value is 0.00141.

Regarding EVLAGR, the “observed amide hydrogen exchange rate constant kobs” value was determined as 0.00244.

On to PFEVPFLK, for which the “observed amide hydrogen exchange rate constant kobs” value turned out to be 0.000569.

As for LLIHQSLAGGIIGVK, the “observed amide hydrogen exchange rate constant kobs” value is 0.000892.

Consider NFAFLEFR, for which the “observed amide hydrogen exchange rate constant kobs” value is 0.00106.

Regarding QIVWNGPVGVFEWEAFAR, the “observed amide hydrogen exchange rate constant kobs” value turned out to be 0.00105.

With NDLAVVDVR, the “observed amide hydrogen exchange rate constant kobs” value was determined as 0.000939.

For the substance IFVGGLNPEATEEK, the “observed amide hydrogen exchange rate constant kobs” value was 0.00108.

On to GGGQIIPTAR, for which the “observed amide hydrogen exchange rate constant kobs” value is 0.000898.

Turning to YHTINGHNAEVR, the “observed amide hydrogen exchange rate constant kobs” value was 0.00291.

In the case of VYALPEDLVEVNPK, the “observed amide hydrogen exchange rate constant kobs” value is 0.0011.

As to VEIIANDQGNR, the “observed amide hydrogen exchange rate constant kobs” value was found to be 0.00189.

In the case of GLTPSQIGVILR, the “observed amide hydrogen exchange rate constant kobs” value turned out to be 0.00062.

Take DSTLIMQLLR: the “observed amide hydrogen exchange rate constant kobs” value was 0.000608.

For ILEFFGLK, the “observed amide hydrogen exchange rate constant kobs” value stood at 0.00112.

Turning to VTVITK, the “observed amide hydrogen exchange rate constant kobs” value came out at 0.000489.

As for KSDVEAIFSK, the “observed amide hydrogen exchange rate constant kobs” value was found to be 0.000898.
